Tested on: Tus-LPETGG-His6 (sortase-immobilized on glycine-modified GMA beads) (Escherichia coli)
Experiment: bead-based fluorescence binding (FACS)
Details: 50 mM Tris-HCl, 250 mM KCl, 0.1 mM EDTA, 0.1 mM DTT, pH 9; temperature of binding not stated

TerB
Kd: 29 nM
